In patent publication US20210388087A1 (Chugai, published 2021):

Assays:
[1] = molecular target: T1, biotin-labeled human CD137 fused to human IgG1 Fc fragment (human, UniProt Q07011 24-186, biotin-labeled); assay: bead ELISA, 1250 ng IgG, S/N over biotin-human Fc
T1 construct: also called human CD137-Fc; biotin-human CD137-Fc; not shown: human IgG1 Fc fragment

human CD137-Fc [2] = molecular target: T2, human CD137-Fc (human, biotin-labeled); assay: bead ELISA on biotin-human CD137-Fc, 0 pmol free CD3e peptide
T2 construct: if 90 already holds the Fc, drop the second piece; also called biotin-labeled human CD137 fused to human IgG1 Fc fragment; biotin-human CD137-Fc; not shown: human IgG1 Fc fragment

human CD137-Fc [3] = molecular target: T2, human CD137-Fc; assay: bead ELISA on biotin-human CD137-Fc, 125 vs 0 pmol free CD3e peptide;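 further: target captured on streptavidin-coated magnetic beads, signal read as fluorescence 2 min after adding APS-5 substrate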
human CD137-Fc [4] = molecular target: T2, human CD137-Fc; assay: bead ELISA on biotin-human CD137-Fc with 125 pmol/well free CD3e peptide as competitor;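 further: Streptavidin-coated magnetic beads in blocking buffer as the capture surface, well signal read as fluorescence 2 min after adding APS-5 substrate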

binding result [1]	ELISA signal (human CD137-Fc [2])	Signal decrease (human CD137-Fc [3])	ELISA signal (human CD137-Fc [4])	Binder
–	19100	87.3%	2420	dBBDu217 (antibody, V domains shown, Human IgG1; light chain GLS3000 (kappa)) VH: QVQLVESGGGLVQPGRSLRLSCAASGFTFSNAWMHWVRQAPGKGLEWVAQIKDRQQGYATYYAPSVKGRFTISRDDSKNSIYLQMNSLKTEDTAVYYCRFVHYHLAGYGYYGVDAWGQGTTVTVSS VL: DIVMTQSPLSLPVTPGEPASISCRSSQSLVHSNRNTYLHWYQQKPGQAPRLLIYKVSNRFSGVPDRFSGSGSGTDFTLKISRVEAEDVGVYYCGQGTQVPYTFGQGTKLEIK
–	43700	95.7%	1880	dBBDu204 (antibody, V domains shown, Human IgG1; light chain GLS3000 (kappa)) VH: QVQLVESGGGLVQPGRSLRLSCAASGFTFSNAWMHWVRQAPGKGLEWVAQIKDRSNNYATYYAESVKGRFTISRDDSKNSIYLQMNSLKTEDTAVYYCHYVHYASASTVLPAFGVDAWGQGTTVTVSS VL: DIVMTQSPLSLPVTPGEPASISCRSSQSLVHSNRNTYLHWYQQKPGQAPRLLIYKVSNRFSGVPDRFSGSGSGTDFTLKISRVEAEDVGVYYCGQGTQVPYTFGQGTKLEIK
–	40900	94.2%	2370	dBBDu199 (antibody, V domains shown, Human IgG1; light chain GLS3000 (kappa)) VH: QVQLVESGGGLVQPGRSLRLSCAASGFTFSNAWMHWVRQAPGKGLEWVAQIKDKQSGYNTYYAPSVKGRFTISRDDSKNSIYLQMNSLKTEDTAVYYCHYVHYASASTVLPAFGVDAWGQGTTVTVSS VL: DIVMTQSPLSLPVTPGEPASISCRSSQSLVHSNRNTYLHWYQQKPGQAPRLLIYKVSNRFSGVPDRFSGSGSGTDFTLKISRVEAEDVGVYYCGQGTQVPYTFGQGTKLEIK
–	7190	55%	3240	dBBDu222 (antibody, V domains shown, Human IgG1; light chain GLS3000 (kappa)) VH: QVQLVESGGGLVQPGRSLRLSCAASGFTISSAWMHWVRQAPGKGLEWVAQIKDRANGYAAYYAPSVKGRFTISRDDSKNSIYLQMNSLKTEDTAVYYCRYVHYATAYDGFYGFGVDAWGQGTTVTVSS VL: DIVMTQSPLSLPVTPGEPASISCRSSQSLVHSNRNTYLHWYQQKPGQAPRLLIYKVSNRFSGVPDRFSGSGSGTDFTLKISRVEAEDVGVYYCGQGTQVPYTFGQGTKLEIK
–	45200	95.2%	2190	dBBDu205 (antibody, V domains shown, Human IgG1; light chain GLS3000 (kappa)) VH: QVQLVESGGGLVQPGRSLRLSCAASGFTFSNAWMHWVRQAPGKGLEWVAQIKDRSQLYAAYYAPSVKGRFTISRDDSKNSIYLQMNSLKTEDTAVYYCHYVHYASASTVLPAFGVDAWGQGTTVTVSS VL: DIVMTQSPLSLPVTPGEPASISCRSSQSLVHSNRNTYLHWYQQKPGQAPRLLIYKVSNRFSGVPDRFSGSGSGTDFTLKISRVEAEDVGVYYCGQGTQVPYTFGQGTKLEIK
–	12100	84%	1930	dBBDu202 (antibody, V domains shown, Human IgG1; light chain GLS3000 (kappa)) VH: QVQLVESGGGLVQPGRSLRLSCAASGFTFSNAWMHWVRQAPGKGLEWVAQIKDKGNAYAAYYAPSVKGRFTISRDDSKNSIYLQMNSLKTEDTAVYYCHYVHYSAASTVLPAFGVDAWGQGTTVTVSS VL: DIVMTQSPLSLPVTPGEPASISCRSSQSLVHSNRNTYLHWYQQKPGQAPRLLIYKVSNRFSGVPDRFSGSGSGTDFTLKISRVEAEDVGVYYCGQGTQVPYTFGQGTKLEIK

More lines, now with the values behind:

Binder	binding result [1]	ELISA signal (human CD137-Fc [2])	Signal decrease (human CD137-Fc [3])	ELISA signal (human CD137-Fc [4])
dBBDu217 (antibody, human IgG1, V domains shown, human IgG1; GLS3000 light chain) VH: QVQLVESGGGLVQPGRSLRLSCAASGFTFSNAWMHWVRQAPGKGLEWVAQIKDRQQGYATYYAPSVKGRFTISRDDSKNSIYLQMNSLKTEDTAVYYCRFVHYHLAGYGYYGVDAWGQGTTVTVSS VL: DIVMTQSPLSLPVTPGEPASISCRSSQSLVHSNRNTYLHWYQQKPGQAPRLLIYKVSNRFSGVPDRFSGSGSGTDFTLKISRVEAEDVGVYYCGQGTQVPYTFGQGTKLEIK	binds	–	–	–
dBBDu139 (antibody, human IgG1, V domains shown, human IgG1; GLS3000 light chain) VH: QVQLVESGGGLVQPGRSLRLSCAASGFTFSNAWMHWVRQAPGKGLEWVAQIKDRGNAYNAYYAESVKGRFTISRDDSKNSIYLQMNSLKTEDTAVYYCRFVHYRHPLLHIQYGVDAWGQGTTVTVSS VL: DIVMTQSPLSLPVTPGEPASISCRSSQSLVHSNRNTYLHWYQQKPGQAPRLLIYKVSNRFSGVPDRFSGSGSGTDFTLKISRVEAEDVGVYYCGQGTQVPYTFGQGTKLEIK	binds	–	–	–
dBBDu139 (antibody, V domains shown, Human IgG1; light chain GLS3000 (kappa)) VH: QVQLVESGGGLVQPGRSLRLSCAASGFTFSNAWMHWVRQAPGKGLEWVAQIKDRGNAYNAYYAESVKGRFTISRDDSKNSIYLQMNSLKTEDTAVYYCRFVHYRHPLLHIQYGVDAWGQGTTVTVSS VL: DIVMTQSPLSLPVTPGEPASISCRSSQSLVHSNRNTYLHWYQQKPGQAPRLLIYKVSNRFSGVPDRFSGSGSGTDFTLKISRVEAEDVGVYYCGQGTQVPYTFGQGTKLEIK	–	9440	79.6%	1920
dBBDu197 (antibody, human IgG1, V domains shown, human IgG1; GLS3000 light chain) VH: QVQLVESGGGLVQPGRSLRLSCAASGFTFSNAWMHWVRQAPGKGLEWVAQIKDRSNAYAAYYAPSVKGRFTISRDDSKNSIYLQMNSLKTEDTAVYYCHYVHYASASTVLPAFGVDAWGQGTTVTVSS VL: DIVMTQSPLSLPVTPGEPASISCRSSQSLVHSNRNTYLHWYQQKPGQAPRLLIYKVSNRFSGVPDRFSGSGSGTDFTLKISRVEAEDVGVYYCGQGTQVPYTFGQGTKLEIK	binds	–	–	–
dBBDu174 (antibody, V domains shown, Human IgG1; light chain GLS3000 (kappa)) VH: QVQLVESGGGLVQPGRSLRLSCAASGFTFSSAWMHWVRQAPGKGLEWVAQIKDRASAYNAYYAESVKGRFTISRDDSKNSIYLQMNSLKTEDTAVYYCRYVHYPSYVSFLPYYGVDAWGQGTTVTVSS VL: DIVMTQSPLSLPVTPGEPASISCRSSQSLVHSNRNTYLHWYQQKPGQAPRLLIYKVSNRFSGVPDRFSGSGSGTDFTLKISRVEAEDVGVYYCGQGTQVPYTFGQGTKLEIK	–	4800	60.8%	1880
dBBDu193 (antibody, V domains shown, Human IgG1; light chain GLS3000 (kappa)) VH: QVQLVESGGGLVQPGRSLRLSCAASGFTFSNAWMHWVRQAPGKGLEWVAQIKDRSNQYATYYAPSVKGRFTISRDDSKNSIYLQMNSLKTEDTAVYYCHYVHYSAASTLLPSFGVDAWGQGTTVTVSS VL: DIVMTQSPLSLPVTPGEPASISCRSSQSLVHSNRNTYLHWYQQKPGQAPRLLIYKVSNRFSGVPDRFSGSGSGTDFTLKISRVEAEDVGVYYCGQGTQVPYTFGQGTKLEIK	–	18200	87.5%	2280
dBBDu196 (antibody, V domains shown, Human IgG1; light chain GLS3000 (kappa)) VH: QVQLVESGGGLVQPGRSLRLSCAASGFTFSNAWMHWVRQAPGKGLEWVAQIKDRGNAYNAYYAESVKGRFTISRDDSKNSIYLQMNSLKTEDTAVYYCHYVHYASASTVLPAFGVDAWGQGTTVTVSS VL: DIVMTQSPLSLPVTPGEPASISCRSSQSLVHSNRNTYLHWYQQKPGQAPRLLIYKVSNRFSGVPDRFSGSGSGTDFTLKISRVEAEDVGVYYCGQGTQVPYTFGQGTKLEIK	–	33100	93.3%	2220
Du115/DUL008 (antibody, V domains shown) VH: QVQLVESGGGLVQPGRSLRLSCAASGFTFSNAWMHWVRQAPGKGLEWVAQIKDKANSYNTYYAPSVKGRFTISRDDSKNSIYLQMNSLKTEDTAVYYCRYVHYGSSYGFLFAGYGVDAWGQGTTVTVSS VL: DIVMTQSPLSLPVTPGEPASISCQSSEELLHANRKTYLHWYQQKPGQAPRLLIYKVQNRFSGVPDRFSGSGSGTDFTLKISRVEAEDVGVYYCAQGTATPFTFGQGTKLEIK	–	86200	97%	2620
